From patent US20150344570A1 (published 2015)
Changes are numbered by the printed parent chain.

Tests used:
Protein A [1] = target: T1, Protein A (UniProt P38507 37-327); assay: Protein A column chromatography, stepwise pH elution; eluted fractions analysed by cation exchange chromatography (peak area %)
T1 construct: Commercial chromatography resin; also called rProtein A Sepharose Fast Flow (GE Healthcare)

Protein A [2] = target: T2, Protein A (UniProt P38507 37-327); assay: Protein A affinity chromatography, stepwise pH elution
T2 construct: bought recombinant resin; also called rProtein A Sepharose Fast Flow
Excerpt: Samples purified by batchwise elution were used as controls.

Protein A [3] = target: T2, Protein A; assay: Protein A affinity chromatography, elution at pH 3.6
Protein A [4] = target: T1, Protein A; assay: Protein A column chromatography, pH 3.6 elution; eluted fraction analysed by cation exchange chromatography (peak area %)
Protocol: The quantity of CM to be loaded was adjusted in a way that the quantity of the loaded antibody is 20 mg/ml resine. Fractions eluted under each condition were collected and the components contained in each elution fraction were identified by cation exchange chromatography analysis. […] Samples purified by batchwise elution were used as controls.
The values represent the area of elution peak expressed in percentage.

Protein A [5] = target: T2, Protein A; assay: Protein A affinity chromatography, elution at pH 3.6 and pH 2.7
Protein A [6] = target: T1, Protein A; assay: Protein A column chromatography, stepwise pH elution; eluted fractions analysed by cation exchange chromatography (peak area %); remark: listed apart in the source
FcgRIIIaV [7] = target: T3, FcgRIIIaV (human, UniProt P08637 17-208); assay: SPR (Biacore), antibody captured on chip, FcgR extracellular domain as analyte
T3 construct: extracellular domain; also called FcγRIIIa V; 3aV; not shown: His tag attached to the C terminus
Protocol: Specifically, H240-Kn204 resulting from the introduction of L234Y/K290Y/Y296W into H240-Kn033, H240-Hl211 resulting from the introduction of S239D/A330M/K334V into H240-Hl033, H240-Kn205 resulting from the introduction of L234Y/Y296W/S298C into H240-Kn033, and H240-Hl212 resulting from the introduction of S239D/K334V into H240-Hl033 were produced according to the method of Reference Example 1. H240-Kn204/H240-Hl211/L73-k0 and H240-Kn205/H240-Hl212/L73-k0 were prepared according to the method of Reference Example 1, by combining H240-Kn204 as one of the H chains and L73-k0 as the L chains with H240-Hl211 as the other H chain, and by combining H240-Kn205 as one of the H chains and L73-k0 as the L chains with H240-Hl212 as the other H chain, and then expressing them. The binding of the prepared variants to FcgRIa, FcgRIIaR, FcgRIIaH, FcgRIIb, FcgRIIIaF, and FcgRIIIaV was measured according to the method of Reference Example 8.
Analysis of interaction between objective antibody and the FcγR was carried out using Biacore T100 (GE Healthcare), Biacore T200, Biacore A100, and Biacore 4000. HBS-EP+ (GE Healthcare) was used as the running buffer, and the measurement temperature was set to 25° C. Chips produced by immobilizing the antigen peptide by the amine coupling method to a Series S sensor Chip CM5 (GE Healthcare), chips produced by allowing preliminarily biotinylated antigen peptides to interact with and immobilize onto a Series S Sensor Chip SA (certified) (GE Healthcare), chips produced by immobilizing Protein L (ACTIGEN, BioVision) to Series S Sencor Chip CM5 (GE Healthcare), or chips produced by immobilizing Protein A/G (Thermo Scientific) to Series S Sencor Chip CM5 (GE Healthcare) were used. Antibodies of interest were captured onto these chips, and allowed to interact to each FcγR diluted with running buffer. To regenerate and repeatedly use the chip, the antibodies captured onto the chip were washed off by reacting 10 mM glycine-HCl, pH 1.5.

FcgRIIaR = target: T4, FcgRIIaR (human, UniProt P12318 34-217); assay: SPR (Biacore); KD of H240-Kn033/H240-Hl033/L73-k0 divided by KD of this variant
T4 construct: extracellular domain; also called FcγRIIa R; FcgRIIa type R; not shown: His tag attached to the C terminus
T4 sequence (looked up): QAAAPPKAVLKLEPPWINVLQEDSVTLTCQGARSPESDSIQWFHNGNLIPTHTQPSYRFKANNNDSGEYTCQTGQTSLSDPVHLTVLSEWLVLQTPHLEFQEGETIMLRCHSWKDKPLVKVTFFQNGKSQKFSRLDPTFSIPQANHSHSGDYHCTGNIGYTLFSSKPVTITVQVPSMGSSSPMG

FcgRIIaH = target: T5, FcgRIIaH (human, UniProt P12318 34-217); assay: as above
T5 construct: extracellular domain; also called FcγRIIa H; FcgRIIa type H; not shown: His tag attached to the C terminus
T5 sequence (looked up): T4 sequence (looked up) with R134H

FcgRIIb = target: T6, FcgRIIb (human, UniProt P31994 43-217); assay: as above
T6 construct: extracellular domain; also called FcγRIIb; 2b; not shown: His tag attached to the C terminus
T6 sequence (looked up): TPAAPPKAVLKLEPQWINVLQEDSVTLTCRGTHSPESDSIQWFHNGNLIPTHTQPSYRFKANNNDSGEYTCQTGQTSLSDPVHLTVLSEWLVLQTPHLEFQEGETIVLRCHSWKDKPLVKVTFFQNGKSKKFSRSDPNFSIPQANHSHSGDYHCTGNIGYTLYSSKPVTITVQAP

FcgRIIIaF = target: T7, FcgRIIIaF (human, UniProt P08637 17-208); assay: as above
T7 construct: extracellular domain; also called FcγRIIIa F; 3aF; not shown: His tag attached to the C terminus

FcgRIIIaV [8] = target: T3, FcgRIIIaV; assay: as above

T3 sequence (P08637 17-208 F176V limits assumed): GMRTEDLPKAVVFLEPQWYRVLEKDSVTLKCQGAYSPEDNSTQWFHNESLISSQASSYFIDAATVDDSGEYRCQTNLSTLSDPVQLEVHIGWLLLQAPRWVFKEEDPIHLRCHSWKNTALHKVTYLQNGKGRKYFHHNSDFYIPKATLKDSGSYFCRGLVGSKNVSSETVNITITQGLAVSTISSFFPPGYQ
T7 sequence (P08637 17-208): as the sequence (P08637 17-208 F176V limits assumed) above, with V160F counted along it

B1: J142-z73/L180-k (antibody, human IgG4 S228P, kappa)
heavy: QVQLVQSGSELKKPGASVKVSCKASGYTFTDNNMDWVRQAPGQGLEWMGDINTRSGGSIYNEEFQDRVTMTIDKSTGTAYMELSSLRSEDTAVYYCARRRSYGYYHDEWGEGTLVTVSSASTKGPSVFPLAPCSRSTSESTAALGCLVKDYFPEPVTVSWNSGALTSGVHTFPAVLQSSGLYSLSSVVTVPSSSLGTKTYTCNVDHKPSNTKVDKRVESKYGPPCPPCPAPEFLGGPSVFLFPPKPKDTLMISRTPEVTCVVVDVSQEDPEVQFNWYVDGVEVHNAKTKPREEQFNSTYRVVSVLTVLHQDWLNGKEYKCKVSNKGLPSSIEKTISKAKGQPREPQVYTLPPSQEEMTKNQVSLTCLVKGFYPSDIAVEWESNGQPENNYKTTPPVLDSDGSFFLYSRLTVDKSRWQEGNVFSCSVMHEALHNRFTQESLSLSP
light: DIQMTQSPSSLSASVGDRVTITCKASRNIERNLAWYQQKPGQAPELLIYSASRKESGVPDRFSGSRYGTDFTLTISSLQPEDLATYYCQQYYSPPLTFGGGTKVEIKRTVAAPSVFIFPPSDEQLKSGTASVVCLLNNFYPREAKVQWKVDNALQSGNSQESVTEQDSKDSTYSLSSTLTLSKADYEKHKVYACEVTHQGLSSPVTKSFNRGEC
notes: also called homomeric antibody against FX
Does B1 bind (Protein A [1])?
Result: no binding

B2: J142-z72/L180-k (antibody, human IgG4 S228P, kappa)
heavy: B1 heavy with E438K
light: B1 light
notes: also called homomeric antibody J142-z72; homomeric antibody against FX
Does B2 bind (Protein A [2])?
Result: no binding

B3: J300-z107/L210-k (antibody, human IgG4 S228P, kappa)
heavy: B1 heavy with T69I, I72V, G77D, Y95H, R100K, H106L, K198Q, F295Y, R408K, F435Y
light: B1 light with L83I, Y92S
notes: also called homomeric antibody J300-z107
Does B3 bind (Protein A [3])?
Result: no binding

B4: J300-z107/L210-k (antibody, human IgG4 S228P, kappa)
heavy: B1 heavy with T69I, I72V, G77D, Y95H, R100K, H106L, K198Q, F295Y, R408K, F435Y
light: B1 light with L83I, Y92S
notes: Homomeric by-product in the culture medium of Q407-z106/J300-z107/L210-k; also called homomeric antibody against FX
Does B4 bind (Protein A [4])?
Result: no binding

B5: J142-z73/L180-k (antibody, human IgG4 S228P, kappa)
heavy: B1 heavy
light: B1 light
notes: also called homomeric antibody J142-z73
Does B5 bind (Protein A [5])?
Result: no binding

B6: J142-z72/L180-k (antibody, human IgG4 S228P, kappa)
heavy: B1 heavy with E438K
light: B1 light
notes: as for B1
Does B6 bind (Protein A [6])?
Result: no binding

B7: H240-Kn125/H240-Hl076/L73-k0 (antibody, human IgG1, kappa)
heavy 1: QDQLVQSGAEVKKPGASVKVSCKASGFNIKDTYIQWVRQAPGQGLEWMGRIDPLRKQTKYREKFEGRVTITADTSTNTAYMELSSLRSEDTAVYYCVRSGREFDYWGQGTLVTVSSASTKGPSVFPLAPSSKSTSGGTAALGCLVKDYFPEPVTVSWNSGALTSGVHTFPAVLQSSGLYSLSSVVTVPSSSLGTQTYICNVNHKPSNTKVDKKVEPKSCDKTHTCPPCPAPEYQWGPMVFLFPPKPKDTLMISRTPEVTCVVVDVSDEEPEVKFNWYVDGVEVHNAKTKPREEQYNATYRVVSVLTVLHQDWLNGKEYKCKVSNKALPAPIEKTISKAKGQPREPQVCTLPPSRDELTKNQVSLWCLVKGFYPSDIAVEWESNGQPENNYKTTPPVLDSDGSFFLYSKLTVDKSRWQQGNVFSCSVMHEALHNHYTQKSLSLSP
heavy 2: QDQLVQSGAEVKKPGASVKVSCKASGFNIKDTYIQWVRQAPGQGLEWMGRIDPLRKQTKYREKFEGRVTITADTSTNTAYMELSSLRSEDTAVYYCVRSGREFDYWGQGTLVTVSSASTKGPSVFPLAPSSKSTSGGTAALGCLVKDYFPEPVTVSWNSGALTSGVHTFPAVLQSSGLYSLSSVVTVPSSSLGTQTYICNVNHKPSNTKVDKKVEPKSCDKTHTCPPCPAPELLGGPSVFLFPPKPKDTLMISRTPEVTCVVVDVSHEEPEVKFNWYVDGVEVHNAKTKPREEQYNSTYRVVSVLTVLHQDWLNGKEYKCKVSNDALPMPIEETISKAKGQPREPQVYTLPPSRCELTKNQVSLSCAVKGFYPSDIAVEWESNGQPENNYKTTPPVLDSDGSFFLVSKLTVDKSRWQQGNVFSCSVMHEALHNHYTQKSLSLSP
light: DIQMTQSPSSLSASVGDRVTITCRASQDIHKYIAWYQQKPGQAPRLLIQYTSTLQPGVPSRFSGSGSGTDYTFTISSLQPEDIATYYCLQYEQLRTFGGGTKVEIKRTVAAPSVFIFPPSDEQLKSGTASVVCLLNNFYPREAKVQWKVDNALQSGNSQESVTEQDSKDSTYSLSSTLTLSKADYEKHKVYACEVTHQGLSSPVTKSFNRGEC
notes: Anti-epiregulin heterodimerized IgG1, knobs-into-holes
With B7 as the binder, how does the Kd (FcgRIIIaV [7]) read?
The Kd was 260 pM.

And the “fold 2aR” value (FcgRIIaR)?
The value was 1.8 fold.

And the “fold 2aH” value (FcgRIIaH)?
Its value is 3.7 fold.

And the “fold 2b” value (FcgRIIb)?
The value was 0.8 fold.

And the “fold 3aF” value (FcgRIIIaF)?
The value was 223 fold.

And the “fold 3aV” value (FcgRIIIaV [8])?
Its value is 185 fold.
